Retention time data for 8 substances are collected here from article PMC10173337.

Values joined by “and” are separate entries in the source; they are usually repeats but may differ in a detail not shown here. Equal values may be shown once.

For this assay, the target named is eight amino acid-mutated FcγRIIIa without glycosylation (ligand of the TSKgel FcR-IIIA-NPR column) (UniProt P08637). The assay can be described thus: FcγRIIIa affinity column chromatography.
Sequence of UniProt P08637 (P08637 17-208, change not shown): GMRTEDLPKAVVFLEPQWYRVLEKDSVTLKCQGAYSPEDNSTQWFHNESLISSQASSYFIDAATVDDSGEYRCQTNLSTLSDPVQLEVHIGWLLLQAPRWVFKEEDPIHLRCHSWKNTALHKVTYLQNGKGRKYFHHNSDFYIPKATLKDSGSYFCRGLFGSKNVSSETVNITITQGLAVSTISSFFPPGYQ
Turning to “Fc fragment of rituximab after papain digestion 5 (domain or fragment)”, the retention time is 11.2 min and 13.6 min and 16 min. Next, “Fc fragment of rituximab with full-length glycan 10 (domain or fragment)”: 16.4 min; full-length cetuximab 3 (antibody): 10.7 min and 13.3 min and 15.1 min; full-length mogamulizumab 4 (antibody): 12.1 min and 14.8 min and 17.2 min. For full-length rituximab 1 (antibody) the value was 10.2 min and 12.6 min and 15 min; for “full-length rituximab with full-length glycan 8 (antibody)”, 15.6 min.

“full-length rituximab with trisaccharide 7 (antibody)” displayed a retention time of 4.3 min. As to full-length trastuzumab 2 (antibody), the retention time was 9.8 min and 12.2 min and 14.7 min.
